By EC50 (read off the curve) is commonly meant the concentration that produces a half-maximal response. Low values mean greater potency, high ones weaker potency.

Read-outs that look alike come from different tables or passages of the source.

We go through three substances from patent publication US20240325520A1.

Experiment [1] deals with RBD protein (K417N, N501Y, E484K).
Experiment [2] has as its target RBD protein (L452R, E484Q).
Experiment [3] addresses RBD protein (L452R, E484Q). The source holds these as a separate data set.

On to “MM43 neutralizing monoclonal antibody (Beijing Sino Biological Ltd. Co., article number 40591-MM43)”, for which the EC50 (read off the curve) in experiment [1] is 0.7 µg/mL.

Take “MM57 neutralizing monoclonal antibody (Beijing Sino Biological Ltd. Co., article number 40592-MM57)”: the EC50 (read off the curve) in experiment [2] is 0.2 µg/mL.

In turn, “R001 neutralizing monoclonal antibody (Beijing Sino Biological Ltd. Co., article number 40592-R001)” had an EC50 (read off the curve) in experiment [3] of 0.2 µg/mL.
